Source: publication PMC10951066, “The self-reactive FVIII T cell repertoire in healthy individuals relies on a short set of epitopes and public clonotypes” (Frontiers in Immunology, 2024)

Columns and labels:
[1] = test system: CD4 T cells from healthy donors; experiment: IFN-γ ELISPOT of CD4 T cell lines raised against rFVIII, ovalbumin or KLH (four donors); assay type: cell-based, human
Excerpt: PBMCs were purified from the whole blood of anonymous healthy donors, who gave informed consent (Etablissement Français du Sang, Rungis, France), using Ficoll-Paque®. Monocyte-derived dendritic cells (DCs) were produced from cells isolated using Percoll gradient by 5 days of culture in AIM-V medium (Invitrogen, Villebon-sur-Yvette, France) supplemented with 1,000 U/ml recombinant human (rh) IL-4 and rhGM-CSF (both from R&D Systems, Lille, France). Mature DCs were produced by two supplementary days of culture in the presence of LPS (1 µg/ml) and R848 (10µg/ml). CD4 T cells were isolated from autologous PBMCs by positive selection using magnetic labeling with anti-CD4 mAbs conjugated to magnetic microbeads followed by magnetic cell sorting, as recommended by the manufacturer (Miltenyi Biotec, Bergisch Gladbach, Germany). Immature DCs were loaded overnight at 37 °C with either 0.2 µM of rFVIII, 0.2 µM of ovalbumin, or 0.25 µM of KLH in 96-well U-bottom plates, while mature DCs were used for FVIII peptides (10 ug/ml). […] 10,000 lymphocytes were collected at day 19 from each T cell line (expanded T cells contained in one well) and their specificity was assessed by using IFN-g ELISPOT.
T cells were incubated with autologous DCs alone (control) or with DCs incubated with rFVIII (0.2 µM), ovalbumin (3 µM), and KLH (1 µM) or PBMCs for FVIII peptides (10 µg/ml) in MultiScreen 96-well plates (Merck Millipore) previously coated with 2.5 µg/mL of anti-human IFN-γ monoclonal antibody (mAb; 1-D1K; Mabtech). […] The spot number was determined by using the ELISPOT Reader System (Autoimmun Diagnostika, Ebinger, Germany). HLA restriction was assessed using monoclonal antibodies (10 μg/ml) specific to HLA-DP (B7/21), HLA-DQ (SPVL3), or HLA-DR (L243).
(§1) Firstly, we aimed to characterize the T cell response to rFVIII in vitro using chicken ovalbumin (Ova) as a non-self-protein benchmark. […] Antigen specificity was assessed using the IFN-γ ELISPOT assay. […] The average number per donor of detected clonotypes was 535 and 918, for a total of 2,143 and 3,672 clonotypes detected for FVIII and Ova. […]

[2] = test system: CD4 T cells from healthy donors; experiment: CD134/CD137 activation-induced marker flow cytometry of pooled specific T cell lines; assay type: cell-based, human; conditions: four donors, overnight re-stimulation with antigen-loaded DCs, unstimulated control removed
Protocol: Positive antigen-specific T cell lines determined by using the ELISPOT assay were pooled together at day 21, after 24 h of resting in IMDM medium and with the absence of cytokine stimuli. The pooled T cell lines were re-stimulated overnight with autologous DCs alone (control) or with DCs previously loaded with either 0.2 µM of rFVIII, 0.2 µM of ovalbumin, or 0.25 µM of KLH. Following 24 h of stimulation, cells were harvested in cell staining buffer (phosphate-buffered saline/EDTA 2 mM/bovine serum albumin 0.5%) and then stained for CD4 (Vio-Blue, clone REA623, Miltenyi Biotec) and activation-induced markers CD134 (OX-40) (PE anti-human, clone Ber-ACT35, Biolegend) and CD137 (4-1BB) (APC anti-human, clone 4B4-1, Biolegend). The CD4/CD134/CD137-positive population for each condition was sorted by flow cytometry ([…] III; Becton Dickinson, San Jose, CA, USA).
as §1, with “benchmark. Given the low frequency of FVIII-specific T cells in healthy donors, we enriched the CD4 population in vitro before analyzing their specificity and sorting them for TCR CDR3β sequencing (Figure 1A).” for “benchmark.”

B1: ovalbumin: chicken ovalbumin, non-self-protein benchmark (protein, UniProt P01012 2-386, looked up)
Ovalbumin: GSIGAASMEFCFDVFKELKVHHANENIFYCPIAIMSALAMVYLGAKDSTRTQINKVVRFDKLPGFGDSIEAQCGTSVNVHSSLRDILNQITKPNDVYSFSLASRLYAEERYPILPEYLQCVKELYRGGLEPINFQTAADQARELINSWVESQTNGIIRNVLQPSSVDSQTAMVLVNAIVFKGLWEKAFKDEDTQAMPFRVTEQESKPVQMMYQIGLFRVASMASEKMKILELPFASGTMSMLVLLPDEVSGLEQLESIINFEKLTEWTSSNVMEERKIKVYLPRMKMEEKYNLTSVLMAMGITDVFSSSANLSGISSAESLKISQAVHAAHAEINEAGREVVGSAEAGVDAASVSEEFRADHPFLFCIKHIATNAVLFFGRCVSP
positive T cell lines ([1]; Donor #1180, positive/tested T cell lines): 13/24
specific T cell lines ([1]; among 96 T cell lines tested for each antigen, four healthy donors, specific = spot count twofold over control, minimum difference 25 spots): 58
precursor frequency of antigen-specific CD4 T cells ([1]; four healthy donors, estimated with Poisson distribution): 5 cells/M
mean activation percentage (CD134/CD137 double-positive of total CD4) [2]: 1.25%
